The target of this assay is guanidine hydrochloride denatured vitamin D binding protein (human) (UniProt P02774). The assay can be described thus: covalent complex formation, reducing SDS-PAGE and immunoblot.

These results are taken from paper PMC4282830.

Chain of UniProt P02774 (P02774 17-474): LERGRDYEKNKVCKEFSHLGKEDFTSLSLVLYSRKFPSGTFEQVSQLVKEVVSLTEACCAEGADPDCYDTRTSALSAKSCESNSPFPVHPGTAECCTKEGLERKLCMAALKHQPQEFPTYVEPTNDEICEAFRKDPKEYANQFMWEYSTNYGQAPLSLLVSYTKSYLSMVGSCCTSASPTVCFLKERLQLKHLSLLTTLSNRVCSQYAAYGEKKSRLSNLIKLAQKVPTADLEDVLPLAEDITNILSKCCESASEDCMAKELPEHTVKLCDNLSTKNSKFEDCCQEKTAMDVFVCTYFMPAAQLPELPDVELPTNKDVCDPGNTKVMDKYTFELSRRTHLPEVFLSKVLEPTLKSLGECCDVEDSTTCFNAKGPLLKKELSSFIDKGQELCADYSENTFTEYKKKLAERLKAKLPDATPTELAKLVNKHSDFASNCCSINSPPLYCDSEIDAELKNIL

As for complement C3b (natural protein), the fold increase in intensity of the C3b:DBP band, denatured versus native DBP was 5 fold.
